Consider 2 substances from patent publication US7348154B2, “IGF binding proteins” (Genentech, Inc., priority 2003, dated 2008).

Assay [1] has as its target T1, native-sequence human IGFBP-3 (Homo sapiens, UniProt P17936, A32G).
T1 construct: “wild-type IGFBP-3,” and “full-length IGFBP-3” is wild-type human IGFBP-3; made in house; host or cells: E. coli BL21, vector pET21a
Kind of assay: BIAcore competition: bp15 versus immobilized biotinylated IGF-I and -II for binding to IGFBP-3. Particulars: 15 nM to 100 µM bp15, 20 nM IGFBP-3, 1 hour at room temperature. The protocol: A total of 15 nM to 100:M bp15 peptide and 20 nM native-sequence human IGFBP-3 were incubated for 1 hour at room temperature before injection over immobilized biotinylated native-sequence human IGF-I and -II.
Competition binding experiments were carried out as follows. 15 nM to 100:M bp15 peptide and 20 nM IGFBP-3 were incubated for 1 hour at room temperature before injection at 20:l/min in PBST over immobilized biotinylated IGF-I and -II. Equilibrium binding data was plotted in GraphPad Prism™ software and fit to a one-site competition-binding model.
(§1) Peptide bp15 ([…]) (SEQ ID NO:11) was identified by phage display (Lowman et al., Biochemistry, 1998, supra). […] Therefore, bp15 was tested to see if it would bind to the miniBP-3 fusion. Compare FIGS. 7 and 8 for competitive binding data for bp15 to IGFBP-3 and to the miniBP-3 fusion, respectively.

A further assay has as its target T2, miniBP-3 fusion protein (Homo sapiens, UniProt P17936).
T2 construct: made in house; host or cells: E. coli BL21, vector pET21a; purified on IgG Sepharose
Kind of assay: BIAcore competition: bp15 versus immobilized biotinylated IGF-I for binding to miniBP-3 fusion protein. Particulars: 1.17 to 300 µM bp15, 1 µM miniBP-3 fusion; exact affinity not determined due to lack of saturation. How it is done: as §1

The target in assay [2] is native-sequence human IGF-II (Homo sapiens, UniProt P01344). Kind of assay: BIAcore kinetic analysis of binding to IGF-II.
Sequence of native-sequence human IGF-II (P01344 25-91 limits assumed): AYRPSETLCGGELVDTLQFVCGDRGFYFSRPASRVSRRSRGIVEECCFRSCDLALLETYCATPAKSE
Procedure: (§2) Two types of chips were prepared for this purpose.
(§3) Carboxymethylated dextran biosensor chips (CM5, BIAcore Inc.) were activated with EDC (N-ethyl-N′-(3-dimethylaminopropyl)-carbodiimide hydrochloride) and NHS(N-hydroxysuccinimide) according to the supplier's instructions. For immobilization, wild-type IGFBP-3 and mutants in 10 mM sodium acetate, pH 4, were injected onto the biosensor chip at a concentration of 0.2 mg/ml to yield approximately 450-700 RU's (resonance-response units) of covalently coupled protein. Unreacted groups were blocked with an injection of 1 M ethanolamine.
(§4) Kinetic measurements were carried out by injecting two-fold serial dilutions of IGF-I or IGF-II in PBST running buffer (PBS, 0.05% TWEEN-20™ buffer, 0.01% sodium azide) at 25° C. using a flow rate of 20 or 50:l/min. IGF concentrations ranged between 0.4 nM and 50 nM for IGFBP-3 and 100 nM to 25:M for miniBP-3 fusion. For both proteins, association and dissociation rates were calculated using a 1:1 Langmuir association model in the BIAcore™ evaluation software. For wild-type IGFBP-3, the equilibrium dissociation constant was calculated as kd/ka. For miniBP-3 fusion, the equilibrium dissociation constant was calculated by plotting equilibrium binding data in GraphPad Prism™ software (GraphPad Software Inc., San Diego, Calif.) and fitting to a one-site binding model.
(§5) Streptavidin-coated chips were conditioned according to the manufacturer's instructions (BIAcore, Inc.) prior to injection of 0.02 mg/ml of biotinylated IGF-I or IGF-II in 10 mM sodium acetate pH 4. Biotinylated IGF-I and IGF-II were prepared using EZ-Link biotinylation reagents according to the manufacturer's instructions (Pierce). Between 100 and 1000 RUs were immobilized on the chip.
(§6) Concentrations were between 250 nM and 32:M.
Assay [3] has as its target native-sequence human IGF-I (Homo sapiens, UniProt P05019). The experiment in a line: BIAcore kinetic analysis of binding to IGF-I.
Procedure: as §2, §3, §4, §5, §6
Where [4] appears, read: IGF-II injected over immobilized wild-type IGFBP-3, 25° C., 1:1 Langmuir model.
Setting [5] is: wild-type IGFBP-3, calculated as kd/ka.
The mark [6] stands for this setting: IGF-I injected over immobilized wild-type IGFBP-3, 25° C., 1:1 Langmuir model.

Sequence of native-sequence human IGF-I (P05019 49-118 limits assumed): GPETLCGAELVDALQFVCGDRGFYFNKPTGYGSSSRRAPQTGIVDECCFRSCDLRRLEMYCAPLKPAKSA
T2 sequence (P17936 74-126, added parts left off): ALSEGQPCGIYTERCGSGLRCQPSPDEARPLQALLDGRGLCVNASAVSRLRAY
T1 sequence (P17936 28-291 A32G): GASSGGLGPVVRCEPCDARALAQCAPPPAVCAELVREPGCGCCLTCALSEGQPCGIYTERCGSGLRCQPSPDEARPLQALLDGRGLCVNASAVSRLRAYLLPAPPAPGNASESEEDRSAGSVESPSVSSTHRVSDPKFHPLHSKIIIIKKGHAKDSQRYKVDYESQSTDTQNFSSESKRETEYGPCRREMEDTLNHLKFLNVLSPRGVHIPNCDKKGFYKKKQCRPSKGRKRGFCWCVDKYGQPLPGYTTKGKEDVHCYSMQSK

As to “SEEVCWPVAEWYLCN (Sequence is synthesized) [bp15]”, the “competition with IGF-I and -II for binding to IGFBP-3” value in assay [1] is “competes with IGF-I and -II for binding to IGFBP-3”. Further, the “binding to miniBP-3 fusion” value with miniBP-3 fusion protein is “does bind to the miniBP-3 fusion, but with reduced affinity compared to wild-type IGFBP-3”.

On to “Wild-type IGFBP-3: wild-type human IGFBP-3 (SEQ ID NO:1 or 12), produced in E. coli and refolded”, for which the results for the ka in assay [2] (setting [4]) and in assay [3] (setting [6]) were 348 ± 1.02 ×10^4 M^−1 s^−1 and 715 ± 3.66 ×10^4 M^−1 s^−1, respectively. The results for the kd in assay [2] (setting [4]) and in assay [3] (setting [6]) were 4.07 ± 0.05 ×10^−4 s^−1 and 7.58 ± 0.07 ×10^−4 s^−1, respectively. The Kd is 0.12 ± 0.001 nM in assay [2] (setting [5]) and 0.11 ± 0.001 nM in assay [3] (setting [5]).
